Results reported in the RNAGym collection of RNA variant scans (doi:10.1021/acssynbio.7b00057).

B1: Pistol ribozyme (parent)
chain: GGGUCGUUGUUCCAUAAUCGCGUGGAUAUGGCACGCAAGUUUCUACCGGGCACCGUAAAUGUCCGACUGGAGCCGUUCGGGCGGCUAUAAACAGACCUCAGGCCCGAAGCGUGGCGGCACCUGCCGCCGGUGGUAAAAAAGAUCGGAAGAGCACACGUCU

Variants of: B1
Test: aptazyme ON/OFF ratio, guanine; higher = stronger switching; co-transcriptional cleavage with and without guanine

In order of falling “aptazyme ON/OFF ratio” value:
1. GGGUCGAUAAGGGAUAAUCGCGUGGAUAUGGCACGCAAGUUUCUACCGGGCACCGUAAAUGUCCGACUGGAGCCGUUCGGGCGGCUAUAAACAGACCUCAGGCCCGAAGCGUGGCGGCACCUGCCGCCGGUGGUAAAAAAGAUCGGAAGAGCACACGUCU [U7A G9A U10A U11G C12G C13G]  1.44
2. GGGUCGAUAACGGAUAAUCGCGUGGAUAUGGCACGCAAGUUUCUACCGGGCACCGUAAAUGUCCGACUGGAGCCGUUCGGGCGGCUAUAAACAGACCUCAGGCCCGAAGCGUGGCGGCACCUGCCGCCGGUGGUAAAAAAGAUCGGAAGAGCACACGUCU [U7A G9A U10A U11C C12G C13G]  1.42
3. GGGUCGAUAAAUUAUAAUCGCGUGGAUAUGGCACGCAAGUUUCUACCGGGCACCGUAAAUGUCCGACUGGAGCCGUUCGGGCGGCUAUAAACAGACCUCAGGCCCGAAGCGUGGCGGCACCUGCCGCCGGUGGUAAAAAAGAUCGGAAGAGCACACGUCU [U7A G9A U10A U11A C12U C13U]  1.39
4. GGGUCGAUAAAUGAUAAUCGCGUGGAUAUGGCACGCAAGUUUCUACCGGGCACCGUAAAUGUCCGACUGGAGCCGUUCGGGCGGCUAUAAACAGACCUCAGGCCCGAAGCGUGGCGGCACCUGCCGCCGGUGGUAAAAAAGAUCGGAAGAGCACACGUCU [U7A G9A U10A U11A C12U C13G]  1.32
5. GGGUCGAUAAGGAAUAAUCGCGUGGAUAUGGCACGCAAGUUUCUACCGGGCACCGUAAAUGUCCGACUGGAGCCGUUCGGGCGGCUAUAAACAGACCUCAGGCCCGAAGCGUGGCGGCACCUGCCGCCGGUGGUAAAAAAGAUCGGAAGAGCACACGUCU [U7A G9A U10A U11G C12G C13A]  1.32
6. GGGUCGAUAAGCCAUAAUCGCGUGGAUAUGGCACGCAAGUUUCUACCGGGCACCGUAAAUGUCCGACUGGAGCCGUUCGGGCGGCUAUAAACAGACCUCAGGCCCGAAGCGUGGCGGCACCUGCCGCCGGUGGUAAAAAAGAUCGGAAGAGCACACGUCU [U7A G9A U10A U11G]  1.3
7. GGGUCGAUAAGGUAUAAUCGCGUGGAUAUGGCACGCAAGUUUCUACCGGGCACCGUAAAUGUCCGACUGGAGCCGUUCGGGCGGCUAUAAACAGACCUCAGGCCCGAAGCGUGGCGGCACCUGCCGCCGGUGGUAAAAAAGAUCGGAAGAGCACACGUCU [U7A G9A U10A U11G C12G C13U]  1.25
8. GGGUCGAUAAGAGAUAAUCGCGUGGAUAUGGCACGCAAGUUUCUACCGGGCACCGUAAAUGUCCGACUGGAGCCGUUCGGGCGGCUAUAAACAGACCUCAGGCCCGAAGCGUGGCGGCACCUGCCGCCGGUGGUAAAAAAGAUCGGAAGAGCACACGUCU [U7A G9A U10A U11G C12A C13G]  1.22
9. GGGUCGAUAAAGGAUAAUCGCGUGGAUAUGGCACGCAAGUUUCUACCGGGCACCGUAAAUGUCCGACUGGAGCCGUUCGGGCGGCUAUAAACAGACCUCAGGCCCGAAGCGUGGCGGCACCUGCCGCCGGUGGUAAAAAAGAUCGGAAGAGCACACGUCU [U7A G9A U10A U11A C12G C13G]  1.21
10. GGGUCGAUAAACUAUAAUCGCGUGGAUAUGGCACGCAAGUUUCUACCGGGCACCGUAAAUGUCCGACUGGAGCCGUUCGGGCGGCUAUAAACAGACCUCAGGCCCGAAGCGUGGCGGCACCUGCCGCCGGUGGUAAAAAAGAUCGGAAGAGCACACGUCU [U7A G9A U10A U11A C13U]  1.21
11. GGGUCGAUAAAUCAUAAUCGCGUGGAUAUGGCACGCAAGUUUCUACCGGGCACCGUAAAUGUCCGACUGGAGCCGUUCGGGCGGCUAUAAACAGACCUCAGGCCCGAAGCGUGGCGGCACCUGCCGCCGGUGGUAAAAAAGAUCGGAAGAGCACACGUCU [U7A G9A U10A U11A C12U]  1.21
12. GGGUCGAUAACGUAUAAUCGCGUGGAUAUGGCACGCAAGUUUCUACCGGGCACCGUAAAUGUCCGACUGGAGCCGUUCGGGCGGCUAUAAACAGACCUCAGGCCCGAAGCGUGGCGGCACCUGCCGCCGGUGGUAAAAAAGAUCGGAAGAGCACACGUCU [U7A G9A U10A U11C C12G C13U]  1.2
13. GGGUCGAUAACGCAUAAUCGCGUGGAUAUGGCACGCAAGUUUCUACCGGGCACCGUAAAUGUCCGACUGGAGCCGUUCGGGCGGCUAUAAACAGACCUCAGGCCCGAAGCGUGGCGGCACCUGCCGCCGGUGGUAAAAAAGAUCGGAAGAGCACACGUCU [U7A G9A U10A U11C C12G]  1.19
14. GGGUCGAUAAAUAAUAAUCGCGUGGAUAUGGCACGCAAGUUUCUACCGGGCACCGUAAAUGUCCGACUGGAGCCGUUCGGGCGGCUAUAAACAGACCUCAGGCCCGAAGCGUGGCGGCACCUGCCGCCGGUGGUAAAAAAGAUCGGAAGAGCACACGUCU [U7A G9A U10A U11A C12U C13A]  1.19
15. GGGUCGAUAACAAAUAAUCGCGUGGAUAUGGCACGCAAGUUUCUACCGGGCACCGUAAAUGUCCGACUGGAGCCGUUCGGGCGGCUAUAAACAGACCUCAGGCCCGAAGCGUGGCGGCACCUGCCGCCGGUGGUAAAAAAGAUCGGAAGAGCACACGUCU [U7A G9A U10A U11C C12A C13A]  1.18
16. GGGUCGAUAACUGAUAAUCGCGUGGAUAUGGCACGCAAGUUUCUACCGGGCACCGUAAAUGUCCGACUGGAGCCGUUCGGGCGGCUAUAAACAGACCUCAGGCCCGAAGCGUGGCGGCACCUGCCGCCGGUGGUAAAAAAGAUCGGAAGAGCACACGUCU [U7A G9A U10A U11C C12U C13G]  1.18
17. GGGUCGAUAAGUCAUAAUCGCGUGGAUAUGGCACGCAAGUUUCUACCGGGCACCGUAAAUGUCCGACUGGAGCCGUUCGGGCGGCUAUAAACAGACCUCAGGCCCGAAGCGUGGCGGCACCUGCCGCCGGUGGUAAAAAAGAUCGGAAGAGCACACGUCU [U7A G9A U10A U11G C12U]  1.17
18. GGGUCGAUAACACAUAAUCGCGUGGAUAUGGCACGCAAGUUUCUACCGGGCACCGUAAAUGUCCGACUGGAGCCGUUCGGGCGGCUAUAAACAGACCUCAGGCCCGAAGCGUGGCGGCACCUGCCGCCGGUGGUAAAAAAGAUCGGAAGAGCACACGUCU [U7A G9A U10A U11C C12A]  1.16
19. GGGUCGAUAAGAAAUAAUCGCGUGGAUAUGGCACGCAAGUUUCUACCGGGCACCGUAAAUGUCCGACUGGAGCCGUUCGGGCGGCUAUAAACAGACCUCAGGCCCGAAGCGUGGCGGCACCUGCCGCCGGUGGUAAAAAAGAUCGGAAGAGCACACGUCU [U7A G9A U10A U11G C12A C13A]  1.16
20. GGGUCGAUAACAGAUAAUCGCGUGGAUAUGGCACGCAAGUUUCUACCGGGCACCGUAAAUGUCCGACUGGAGCCGUUCGGGCGGCUAUAAACAGACCUCAGGCCCGAAGCGUGGCGGCACCUGCCGCCGGUGGUAAAAAAGAUCGGAAGAGCACACGUCU [U7A G9A U10A U11C C12A C13G]  1.15
21. GGGUCGAUAACUUAUAAUCGCGUGGAUAUGGCACGCAAGUUUCUACCGGGCACCGUAAAUGUCCGACUGGAGCCGUUCGGGCGGCUAUAAACAGACCUCAGGCCCGAAGCGUGGCGGCACCUGCCGCCGGUGGUAAAAAAGAUCGGAAGAGCACACGUCU [U7A G9A U10A U11C C12U C13U]  1.15
22. GGGUCGAUAAACAAUAAUCGCGUGGAUAUGGCACGCAAGUUUCUACCGGGCACCGUAAAUGUCCGACUGGAGCCGUUCGGGCGGCUAUAAACAGACCUCAGGCCCGAAGCGUGGCGGCACCUGCCGCCGGUGGUAAAAAAGAUCGGAAGAGCACACGUCU [U7A G9A U10A U11A C13A]  1.15
23. GGGUCGAUAACUAAUAAUCGCGUGGAUAUGGCACGCAAGUUUCUACCGGGCACCGUAAAUGUCCGACUGGAGCCGUUCGGGCGGCUAUAAACAGACCUCAGGCCCGAAGCGUGGCGGCACCUGCCGCCGGUGGUAAAAAAGAUCGGAAGAGCACACGUCU [U7A G9A U10A U11C C12U C13A]  1.13
24. GGGUCGAUAAGGCAUAAUCGCGUGGAUAUGGCACGCAAGUUUCUACCGGGCACCGUAAAUGUCCGACUGGAGCCGUUCGGGCGGCUAUAAACAGACCUCAGGCCCGAAGCGUGGCGGCACCUGCCGCCGGUGGUAAAAAAGAUCGGAAGAGCACACGUCU [U7A G9A U10A U11G C12G]  1.13
25. GGGUCGAUAACAUAUAAUCGCGUGGAUAUGGCACGCAAGUUUCUACCGGGCACCGUAAAUGUCCGACUGGAGCCGUUCGGGCGGCUAUAAACAGACCUCAGGCCCGAAGCGUGGCGGCACCUGCCGCCGGUGGUAAAAAAGAUCGGAAGAGCACACGUCU [U7A G9A U10A U11C C12A C13U]  1.1
26. GGGUCGAUAACUCAUAAUCGCGUGGAUAUGGCACGCAAGUUUCUACCGGGCACCGUAAAUGUCCGACUGGAGCCGUUCGGGCGGCUAUAAACAGACCUCAGGCCCGAAGCGUGGCGGCACCUGCCGCCGGUGGUAAAAAAGAUCGGAAGAGCACACGUCU [U7A G9A U10A U11C C12U]  1.1
27. GGGUCGAUAACCGAUAAUCGCGUGGAUAUGGCACGCAAGUUUCUACCGGGCACCGUAAAUGUCCGACUGGAGCCGUUCGGGCGGCUAUAAACAGACCUCAGGCCCGAAGCGUGGCGGCACCUGCCGCCGGUGGUAAAAAAGAUCGGAAGAGCACACGUCU [U7A G9A U10A U11C C13G]  1.1
28. GGGUCGAUAAGACAUAAUCGCGUGGAUAUGGCACGCAAGUUUCUACCGGGCACCGUAAAUGUCCGACUGGAGCCGUUCGGGCGGCUAUAAACAGACCUCAGGCCCGAAGCGUGGCGGCACCUGCCGCCGGUGGUAAAAAAGAUCGGAAGAGCACACGUCU [U7A G9A U10A U11G C12A]  1.1
29. GGGUCGAUAAAGAAUAAUCGCGUGGAUAUGGCACGCAAGUUUCUACCGGGCACCGUAAAUGUCCGACUGGAGCCGUUCGGGCGGCUAUAAACAGACCUCAGGCCCGAAGCGUGGCGGCACCUGCCGCCGGUGGUAAAAAAGAUCGGAAGAGCACACGUCU [U7A G9A U10A U11A C12G C13A]  1.09
30. GGGUCGAUAAGAUAUAAUCGCGUGGAUAUGGCACGCAAGUUUCUACCGGGCACCGUAAAUGUCCGACUGGAGCCGUUCGGGCGGCUAUAAACAGACCUCAGGCCCGAAGCGUGGCGGCACCUGCCGCCGGUGGUAAAAAAGAUCGGAAGAGCACACGUCU [U7A G9A U10A U11G C12A C13U]  1.09
31. GGGUCGAUAACGAAUAAUCGCGUGGAUAUGGCACGCAAGUUUCUACCGGGCACCGUAAAUGUCCGACUGGAGCCGUUCGGGCGGCUAUAAACAGACCUCAGGCCCGAAGCGUGGCGGCACCUGCCGCCGGUGGUAAAAAAGAUCGGAAGAGCACACGUCU [U7A G9A U10A U11C C12G C13A]  1.08
32. GGGUCGAUAAACGAUAAUCGCGUGGAUAUGGCACGCAAGUUUCUACCGGGCACCGUAAAUGUCCGACUGGAGCCGUUCGGGCGGCUAUAAACAGACCUCAGGCCCGAAGCGUGGCGGCACCUGCCGCCGGUGGUAAAAAAGAUCGGAAGAGCACACGUCU [U7A G9A U10A U11A C13G]  1.08
33. GGGUCGAUAACCCAUAAUCGCGUGGAUAUGGCACGCAAGUUUCUACCGGGCACCGUAAAUGUCCGACUGGAGCCGUUCGGGCGGCUAUAAACAGACCUCAGGCCCGAAGCGUGGCGGCACCUGCCGCCGGUGGUAAAAAAGAUCGGAAGAGCACACGUCU [U7A G9A U10A U11C]  1.07
34. GGGUCGAUAACCUAUAAUCGCGUGGAUAUGGCACGCAAGUUUCUACCGGGCACCGUAAAUGUCCGACUGGAGCCGUUCGGGCGGCUAUAAACAGACCUCAGGCCCGAAGCGUGGCGGCACCUGCCGCCGGUGGUAAAAAAGAUCGGAAGAGCACACGUCU [U7A G9A U10A U11C C13U]  1.06
35. GGGUCGAUAAAGUAUAAUCGCGUGGAUAUGGCACGCAAGUUUCUACCGGGCACCGUAAAUGUCCGACUGGAGCCGUUCGGGCGGCUAUAAACAGACCUCAGGCCCGAAGCGUGGCGGCACCUGCCGCCGGUGGUAAAAAAGAUCGGAAGAGCACACGUCU [U7A G9A U10A U11A C12G C13U]  1.05
36. GGGUCGAUAACCAAUAAUCGCGUGGAUAUGGCACGCAAGUUUCUACCGGGCACCGUAAAUGUCCGACUGGAGCCGUUCGGGCGGCUAUAAACAGACCUCAGGCCCGAAGCGUGGCGGCACCUGCCGCCGGUGGUAAAAAAGAUCGGAAGAGCACACGUCU [U7A G9A U10A U11C C13A]  1.02
